The nature of this data set: protein stability index of a GFP-peptide fusion (GPS, HEK-293T) (PSI 1-6); higher = more stable.
Setting [1] is: treatment: DMSO, c terminus: a fixed tail appended.
[2] abbreviates: treatment: MLN4924 1 uM, 8 h, c terminus: a fixed tail appended.
The mark [3] stands for this setting: treatment: DMSO, c terminus: native.
[4] abbreviates: treatment: MLN4924 1 uM, 8 h, c terminus: native.

± gives the standard deviation.
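Also: 24-mer peptide tiles fused after GFP, lentivirally expressed, FACS-sorted into six equal bins by GFP/DsRed ratio, decoded by Illumina sequencing, PSI is the read-weighted mean bin number.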

As to IPPSSDRTPEILKKALSGLSSRWK [CDS1], the protein stability index under setting [1] amounted to 2.39 ± 0.49 and the protein stability index under setting [2] was 2.29 ± 0.46.
On to SAASVYAGAGGSGSRISVSRSTSF [KRT18], for which the protein stability index by setting is: under setting [1], 3.66 ± 0.066; under setting [2], 3.59 ± 0.28.
For the sequence GVIQSVSSWKHGSGTQYVSTRQTQ [C18orf25], the protein stability index is, setting by setting: under setting [1], 3.19 ± 0.11; under setting [2], 3.52 ± 0.35.
The corresponding values for AAARIRAQVPDTRWSRVGGQRFYS are 2.713 ± 0.004 and 3 ± 0.61.
In the same order, the values of ATGDTALTYACENGHTDVADVLLQ [ANKRD17] are 4.41 ± 0.21 and 4.56 ± 0.08.
With AREYYSEADASHCIQQILEAVLHC [CAMK2A], the protein stability index under setting [1] was determined as 2.48 ± 0.26 and the protein stability index under setting [2] is 2.55 ± 0.24.
In the same order, the values of KGGVQNFNKDLVQDCGFEHLVPVI [CEP70] are 2.53 ± 0.13 and 3.18 ± 0.46.
In the same order, the values of IGELLAPAAPFDKKCGRENWTVAF [WSB1] are 2.23 ± 0.12 and 2.57 ± 0.45.
In the same order, the values of VDENDSHEGEDQFLSLEASTETLV [DLC1] are 5.66 ± 0.16 and 5.56 ± 0.2.
The sequence KNQGEENGFPDSTGDPLPEISKDN [EDARADD] gave a protein stability index under setting [1] of 5.5 ± 0.15 and a protein stability index under setting [2] of 5.54 ± 0.067.
In the same order, the values of KKSNSPGTASSGSSRLPQPSGAGK [ZC2HC1A] are 5.25 ± 0.19 and 5.23 ± 0.14.
Take FSQYGRIITSRILVDQVTGVSRGV [ELAVL3]: the protein stability index is, setting by setting: under setting [1], 2.23 ± 0.26; under setting [2], 2.33 ± 0.23.
The corresponding values for QLVEMTGLSPRVIRVWFQNKRCKD [ISL2] are 2.47 ± 0.4 and 2.95 ± 0.43.
In the same order, the values of MNALLEQKEQQERLREAAALGDIR [ANKRD40] are 4.66 ± 0.24 and 4.76 ± 0.18.
The corresponding values for YEAGVLAFYDVTGGMSHLHTFRAT [TRIM14] are 2.47 ± 0.45 and 2.07 ± 0.45.
For VLEVTEESIDFDQGELADQDVDPV [FBXO33], the protein stability index came to 5.34 ± 0.19 under setting [1] and 5.57 ± 0.2 under setting [2].
The corresponding values for GGAQASGTLIGVGQSVTAVGRIIA [MFSD9] are 3.38 ± 0.34 and 3.42 ± 0.2.
In the same order, the values of ASKLKETSPLTAEKLCIYTDNSIK [CCND2] are 4 ± 0.18 and 4.05 ± 0.092.
In the same order, the values of EISLEDLIERERSALGPNVTKITL [ZC3H15] are 2.77 ± 0.3 and 2.96 ± 0.48.
Turning to TGGPDACLRCWDQRTIMKPLEYQF [TLE6], the protein stability index by setting is: under setting [1], 2.29 ± 0.17; under setting [2], 2.74 ± 0.27.
In the same order, the values of SPEKFQIEANFPRRVLPCIPSEEW [FAF2] are 3.75 ± 0.12 and 3.79 ± 0.29.
The corresponding values for STEDMERALSEYLAVFARCLAGCE [P3H4] are 3.59 ± 0.2 and 3.37 ± 0.32.
In the same order, the values of VLRTYLELVLCVLVSIRNNRNLQK [FBXO33] are 2.96 ± 0.71 and 2.64 ± 0.51.
For the sequence EDAEAVEQLREALHEALLEYEAGR [ESRRA], the protein stability index is, setting by setting: under setting [1], 4.03 ± 0.35; under setting [2], 4.26 ± 0.18.
In the same order, the values of SGISFPSVVDHPMPEERASKYENY [HESX1] are 4.25 ± 0.32 and 4.22 ± 0.3.
As for PGKINCLRNCKTYQARKPLWFYNT [RHOBTB3], the protein stability index runs as follows: under setting [1], 2.59 ± 0.41; under setting [2], 2.76 ± 0.47.
In the same order, the values of GLEDAGLDPHFVPTELWPQEAVPL [TEX19] are 4.44 ± 0.13 and 4.62 ± 0.12.
For the sequence ENELMISYLMFLQILVYFSFMSW [FAM98B], the protein stability index was found to be 3.17 ± 0.67 under setting [3] and 3.26 ± 0.33 under setting [4].
Take ALGDAFADLSQKSPELQEEFGYNA [ARFIP2]: the protein stability index reads like this: under setting [1], 4.6 ± 0.17; under setting [2], 4.63 ± 0.22.
In the same order, the values of KVFEELLLDADWSINAGSWMWLSC [CRY1] are 2.28 ± 0.49 and 2.58 ± 0.27.
The corresponding values for TVERPFYDLWASDNPLDRPLVGQD [NOP53] are 4.09 ± 0.37 and 4.2 ± 0.15.
Regarding RRPRRVEAERPHSLIGVIRETVL [FAM189A2], the protein stability index came out at 3.39 ± 0.12 under setting [3] and 3.42 ± 0.22 under setting [4].
For MSSIICEGDTVSQELLDTVLVNLV [PDS5B], the protein stability index runs as follows: under setting [1], 2.24 ± 0.22; under setting [2], 2.14 ± 0.53.
The corresponding values for GLGLPMSRSQNTDMVQKSVSKTLP [CLINT1] are 4.33 ± 0.23 and 4.44 ± 0.099.
In the same order, the values of VTVRVPTHEEGSYLFWEFATDNYD [ACBD3] are 2.19 ± 0.34 and 2.31 ± 0.62.
The corresponding values for GSPQQPGLSAPHSRQIPAPQGAVL [KISS1] are 4.3 ± 0.15 and 4.61 ± 0.28.
RSLLGYDPQILQMLKEEHQIILEN [RAD54B] came in with a protein stability index under setting [1] of 2.94 ± 0.19 and a protein stability index under setting [2] of 3.11 ± 0.21.
On to CFKAAFLDFKDLLESEDWEEDNWD [TEX19], for which the protein stability index amounted to 2.95 ± 0.2 under setting [1] and 3.24 ± 0.36 under setting [2].
Consider LWLRPEVHTKEQILELLVLEQFLA [ZNF396], for which the protein stability index reads like this: under setting [1], 2.54 ± 0.5; under setting [2], 2.73 ± 0.49.
In the same order, the values of ERPLPNPEGLDSDFLAVLSDYPSP [SLA] are 4.26 ± 0.39 and 4.58 ± 0.41.
As to AACSSKRSPIIDVKNDRDRVGHKS [SERPINB5], the protein stability index is, setting by setting: under setting [1], 4.85 ± 0.35; under setting [2], 4.77 ± 0.11.
The corresponding values for MCLSPDRKMEVEELSPLALGRFSL [CDC25B] are 2.57 ± 0.19 and 2.71 ± 0.24.
The corresponding values for PLGAGNLGPELIKESNANPIFMRK [DPCD] are 4.34 ± 0.27 and 4.54 ± 0.23.
The corresponding values for SLVAPLLLELAGEVTDTGDPIVRP [MYORG] are 3.23 ± 0.33 and 3.3 ± 0.23.
As for LAGGYTSSLACHRALQDAFSGLFW [MNAT1], the protein stability index runs as follows: under setting [1], 2.44 ± 0.12; under setting [2], 2.45 ± 1.
In the case of VESSLDKVVLSDAYAHPQQKVAVY [TRADD], the protein stability index under setting [1] was determined as 2.88 ± 0.29 and the protein stability index under setting [2] came to 3.26 ± 0.12.
In the case of GSQLPKPRMLRESGHGDAHLQEYA [FATE1], the protein stability index is 4.38 ± 0.25 under setting [1] and 4.5 ± 0.11 under setting [2].
With IASIADVCESMKEQLLVLVEWAKY [HNF4A], the protein stability index is, setting by setting: under setting [1], 2.42 ± 0.36; under setting [2], 2.15 ± 0.38.
The corresponding values for PEMNGNGAVAPMDFTTAAEDQPIN [NOL4L] are 5.35 ± 0.26 and 5.47 ± 0.15.
The corresponding values for MPEYRGQGIGSKIIKKVAEVALDK [SAT2] are 3.65 ± 0.35 and 4.05 ± 0.27.
The corresponding values for KQLKPWCWYCNRDFDDEKILIQHQ [ZNF207] are 2.21 ± 0.45 and 2.46 ± 0.59.
On to IGDFGISKILSSKSKAYTVVGTPC [NEK8], for which the protein stability index is, setting by setting: under setting [1], 2.35 ± 0.12; under setting [2], 2.47 ± 0.34.
The corresponding values for SRLNLTGLGYFSCHSHTVVQDYSY [CCDC3] are 2.12 ± 0.37 and 2.18 ± 0.11.
In the same order, the values of YAKKESDLNGAQIKLREYEAALNS [LMNB1] are 4.07 ± 0.2 and 4.07 ± 0.3.
In the same order, the values of KSPEMPVILEVSLEGSHDTANCEA [RTP4] are 4.85 ± 0.11 and 5.07 ± 0.34.
FPSLQVTAILIECGADVNVRDSDD [FEM1C]: the protein stability index amounted to 2.44 ± 0.18 under setting [1] and 2.37 ± 0.39 under setting [2].
The corresponding values for PDQAYDFLLKFLLVGDRDVGKSEI [RAB40A] are 2.46 ± 0.39 and 2.35 ± 0.3.
On to MITVPIGLYFTTKSYIFEGALGMS [VMA21], for which the protein stability index under setting [1] was 2.49 ± 0.7 and the protein stability index under setting [2] worked out at 2.89 ± 0.43.
The corresponding values for YQQIKAGAYDFPSPEWDTVTPEAK [CAMK2B] are 3.89 ± 0.34 and 4.15 ± 0.32.
The corresponding values for TAYSRLNETQPIDLSGLPLQSSKN [RNF180] are 3.76 ± 0.27 and 3.86 ± 0.25.
The corresponding values for NKTKPIWTRNPDDITQEEYGEFYK [HSP90AB1] are 4.36 ± 0.42 and 4.49 ± 0.44.
Consider AQAQALAAQAAAAAHAAQAHRERN [PI4K2A], for which the protein stability index reads like this: under setting [1], 4.9 ± 0.076; under setting [2], 4.8 ± 0.12.
The corresponding values for YFLRGSLPWQGLKADTLKERYQKI [CSNK1G3] are 2.17 ± 0.14 and 2.14 ± 0.39.
The corresponding values for TPLLMAARYGHLDMVEFLLEQCSA [FEM1C] are 2.28 ± 0.41 and 2.26 ± 0.24.
In the same order, the values of IIHHMRLQAKALQLIVTARTTRGL [INTS4] are 2.5 ± 0.58 and 2.26 ± 0.28.
RRKPDPPKDENERSTCNVVQDEFL [DLC1]: the protein stability index is, setting by setting: under setting [1], 5.27 ± 0.1; under setting [2], 5.33 ± 0.13.
The corresponding values for RLAELLLLETDAGPAASEGAEQPP [GADD45A] are 3.26 ± 0.22 and 3.6 ± 0.56.
Turning to HSQRTALHLAAQKALRTISTGRI [INVS], the protein stability index by setting is: under setting [3], 3.08 ± 0.9; under setting [4], 2.36 ± 0.086.
On to FLTHFILMNDVIDTSGFPDLSDNR [FBXO33], for which the protein stability index by setting is: under setting [1], 2.41 ± 0.47; under setting [2], 2.27 ± 0.43.
For the sequence KQTIGNSCKACGYRGMLDTHHKLC [EIF5], the protein stability index runs as follows: under setting [1], 2.8 ± 0.37; under setting [2], 2.81 ± 0.5.
In the same order, the values of ALQNYNNELVKCIEELCQKREELC [SSNA1] are 2.94 ± 0.18 and 2.94 ± 0.33.
Turning to VGEFPIISPGRVYEYTSCTTFSTT [FBXO3], the protein stability index runs as follows: under setting [1], 2.3 ± 0.22; under setting [2], 2.33 ± 0.32.

These data come from the supplement of paper PMC10567573.
